The series deals with Nc1ncnc2c1ncn2[C@@H]1O[C@H](COP(=O)(O)OP(=O)(O)O[C@H]2O[C@H](CO)[C@@H](O)[C@H](O)[C@H]2O)[C@@H](O)[C@H]1O. The experiment in a line: purified protein. Particulars: Mg2+ (stimulates kcat) compulsory-order ternary-complex mechanism; ADP-glucose binds before glucose 1-phosphate.

As usually defined, the Km is the substrate concentration at which the rate is half of its maximum. The term Vmax denotes the top rate of the reaction or transport when substrate is in excess. One may read the kcat as the maximal rate divided by the concentration of active sites. On to GlgA (Mycobacterium tuberculosis H37Rv), for which the Km came out at 46 ± 4 µM, the Vmax came to 21.4 µmol/min/mg and the kcat came to 15.4 ± 0.3 s⁻¹.

The values are drawn from paper PMC4981310 (PLoS Pathogens, 2016).
